From patent US20220119531A1

Molecular target: human PD-L1 expressed on mammalian cells (human) (UniProt Q9NZQ7)
Experiment: FACS on PDL1-Raji cells by the text; sheet title 'Cell-Based Binding Raji-PDL1 cells', y axis labelled IL2 (ng/ml); EC50 table under the plot, unit taken from the axis Concentration (nM)

Chain of human PD-L1 expressed on mammalian cells (human) (Q9NZQ7 19-290): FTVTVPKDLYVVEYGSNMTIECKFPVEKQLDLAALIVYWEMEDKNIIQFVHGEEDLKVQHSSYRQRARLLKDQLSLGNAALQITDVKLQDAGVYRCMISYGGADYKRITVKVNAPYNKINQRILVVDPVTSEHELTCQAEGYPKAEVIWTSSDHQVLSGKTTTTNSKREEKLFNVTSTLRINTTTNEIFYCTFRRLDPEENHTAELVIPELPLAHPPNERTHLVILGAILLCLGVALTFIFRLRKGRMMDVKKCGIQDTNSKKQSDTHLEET

EC50: 0.89 nM
Substance: Tecentriq (atezolizumab) (antibody)
